Assay [1] concerns the target SARS-CoV-1 Spike protein, 2 P (SARS-CoV-1, isolate , UniProt P59594, stabilised). Nature of the assay: ELISA. Particulars: both partners purified. (ELISA stands for enzyme-linked immunosorbent assay.)
Assay [2] concerns the target MERS Spike protein, 2 P (MERS-CoV, isolate  (entry: …, UniProt K9N5Q8, stabilised)). The assay is described as follows: ELISA. Particulars: both partners purified.

B1: CC40.8 mAb (antibody, V domains shown)
VH: EVQLLESGGGLVQPGGSLRLSCAASGFTFSSYVMTWARQAPGKGLEWVSAISGTGYTYYADSVKGRFTVSRDNSKNTLFLQMSSLRAEDTAVYYCAITMAPVVWGQGTTVTVSS
VL: SYELTQPPSVSVSPGQTARITCSGDALPKRYAYWYQQKSGQAPILVIYEDKKRPSGIPERLSGSKSGTVATLTISGAQVEDEADYYCYSTDSSGNHAVFGGGTQLTVL
notes: IgG; source: Expi293F, transfected, purified (Protein A)
With B1, in assay [1], the binding result is “binds”.

B2: S2P6 mAb (antibody, V domains shown)
VH: EVQLVQSGAEVKKPGASVKVSCKASGYTFTSQYMHWVRQAPGQGLEWIGIINPSGVHTSYAQKFQGRVTLTRDTSTSTLYMELSSLRSEDTAVYYCARGSPKGAFDYWGQGTLVTVSS
VL: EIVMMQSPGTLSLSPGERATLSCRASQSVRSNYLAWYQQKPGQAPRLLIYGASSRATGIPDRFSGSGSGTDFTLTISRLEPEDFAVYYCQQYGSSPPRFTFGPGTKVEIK
notes: IgG; IGHV1-46/IGKV3-20; source: Expi293F, transfected, purified (Protein A)
B2: the binding result in assay [2] and in assay [1] was “binds” throughout.

The values are drawn from article PMC10689493 (Nature Communications, 2023).
